Measured values: PMC5379955 (The Journal of Cell Biology, 2017)

T1: ROD^1–1,250 (human, UniProt P50748 1-1250)
T1 sequence (looked up): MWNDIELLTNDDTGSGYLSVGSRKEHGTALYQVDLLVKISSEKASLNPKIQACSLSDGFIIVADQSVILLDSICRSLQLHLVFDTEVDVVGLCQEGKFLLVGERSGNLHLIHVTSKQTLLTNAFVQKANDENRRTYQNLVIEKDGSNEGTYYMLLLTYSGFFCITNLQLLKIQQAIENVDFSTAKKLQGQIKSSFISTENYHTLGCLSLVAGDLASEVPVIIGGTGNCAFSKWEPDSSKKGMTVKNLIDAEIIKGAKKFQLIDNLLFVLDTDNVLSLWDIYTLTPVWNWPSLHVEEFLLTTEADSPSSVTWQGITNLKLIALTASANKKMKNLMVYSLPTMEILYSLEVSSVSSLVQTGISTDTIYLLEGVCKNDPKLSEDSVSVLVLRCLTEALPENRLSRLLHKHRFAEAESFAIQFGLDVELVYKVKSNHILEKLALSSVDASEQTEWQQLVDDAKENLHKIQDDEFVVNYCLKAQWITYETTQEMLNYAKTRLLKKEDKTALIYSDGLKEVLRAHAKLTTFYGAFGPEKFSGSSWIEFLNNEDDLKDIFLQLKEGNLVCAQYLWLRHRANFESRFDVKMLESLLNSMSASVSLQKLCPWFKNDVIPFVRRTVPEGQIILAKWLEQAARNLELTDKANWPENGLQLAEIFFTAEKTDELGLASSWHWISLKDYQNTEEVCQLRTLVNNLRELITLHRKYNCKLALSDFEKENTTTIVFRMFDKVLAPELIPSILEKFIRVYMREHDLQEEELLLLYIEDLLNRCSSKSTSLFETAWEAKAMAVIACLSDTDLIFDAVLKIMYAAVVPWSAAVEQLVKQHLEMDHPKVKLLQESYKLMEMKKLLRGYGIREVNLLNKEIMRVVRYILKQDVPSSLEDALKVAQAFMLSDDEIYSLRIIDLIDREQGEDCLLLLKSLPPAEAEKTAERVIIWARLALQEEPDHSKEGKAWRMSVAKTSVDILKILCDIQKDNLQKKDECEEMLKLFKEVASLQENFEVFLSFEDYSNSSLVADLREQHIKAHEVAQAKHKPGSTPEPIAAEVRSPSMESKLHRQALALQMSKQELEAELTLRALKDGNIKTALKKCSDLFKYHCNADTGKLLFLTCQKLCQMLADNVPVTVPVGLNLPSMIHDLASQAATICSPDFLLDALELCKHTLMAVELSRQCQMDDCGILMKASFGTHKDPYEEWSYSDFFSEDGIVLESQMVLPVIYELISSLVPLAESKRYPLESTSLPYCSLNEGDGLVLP

B1: ROD^Δ754–1,796 (domain or fragment, human)
chain: MWNDIELLTNDDTGSGYLSVGSRKEHGTALYQVDLLVKISSEKASLNPKIQACSLSDGFIIVADQSVILLDSICRSLQLHLVFDTEVDVVGLCQEGKFLLVGERSGNLHLIHVTSKQTLLTNAFVQKANDENRRTYQNLVIEKDGSNEGTYYMLLLTYSGFFCITNLQLLKIQQAIENVDFSTAKKLQGQIKSSFISTENYHTLGCLSLVAGDLASEVPVIIGGTGNCAFSKWEPDSSKKGMTVKNLIDAEIIKGAKKFQLIDNLLFVLDTDNVLSLWDIYTLTPVWNWPSLHVEEFLLTTEADSPSSVTWQGITNLKLIALTASANKKMKNLMVYSLPTMEILYSLEVSSVSSLVQTGISTDTIYLLEGVCKNDPKLSEDSVSVLVLRCLTEALPENRLSRLLHKHRFAEAESFAIQFGLDVELVYKVKSNHILEKLALSSVDASEQTEWQQLVDDAKENLHKIQDDEFVVNYCLKAQWITYETTQEMLNYAKTRLLKKEDKTALIYSDGLKEVLRAHAKLTTFYGAFGPEKFSGSSWIEFLNNEDDLKDIFLQLKEGNLVCAQYLWLRHRANFESRFDVKMLESLLNSMSASVSLQKLCPWFKNDVIPFVRRTVPEGQIILAKWLEQAARNLELTDKANWPENGLQLAEIFFTAEKTDELGLASSWHWISLKDYQNTEEVCQLRTLVNNLRELITLHRKYNCKLALSDFEKENTTTIVFRMFDKVLAPELIPSILEKFIRVYMREHDLQEEGGSGGGSGGGSGGGSGIHAAAKEIAEVNEINLEKVWDMLLEKWLCPSTKPGEKPSELFELQEDEALRRVQYLLLSRPIDYSSRMLFVFATSTTTTLGMHQLTFAHRTRALQCLFYLADKETIESLFKKPIEEVKSYLRCITFLASFETLNIPITYELFCSSPKEGMIKGLWKNHSHESMAVRLVTELCLEYKIYDLQLWNGLLQKLLGFNMIPYLRKVLKAISSIHSLWQVPYFSKAWQRVIQIPLLSASCPLSPDQLSDCSESLIAVLECPVSGDLDLIGVARQYIQLELPAFALACLMLMPHSEKRHQQIKNFLGSCDPQVILKQLEEHMNTGQLAGFSHQIRSLILNNIINKKEFGILAKTKYFQMLKMHAMNTNNITELVNYLANDLSLDEASVLITEYSKHCGKPVPPDTAPCEILKMFLSGLS
B2: farnesylated Spindly (Spindly^Farn) (natural protein, human, UniProt Q96EA4 1-605, looked up)
chain: MEADIITNLRCRLKEAEEERLKAAQYGLQLVESQNELQNQLDKCRNEMMTMTESYEQEKYTLQREVELKSRMLESLSCECEAIKQQQKMHLEKLEEQLSRSHGQEVNELKTKIEKLKVELDEARLSEKQLKHQVDHQKELLSCKSEELRVMSERVQESMSSEMLALQIELTEMESMKTTLKEEVNELQYRQEQLELLITNLMRQVDRLKEEKEEREKEAVSYYNALEKARVANQDLQVQLDQALQQALDPNSKGNSLFAEVEDRRAAMERQLISMKVKYQSLKKQNVFNREQMQRMKLQIATLLQMKGSQTEFEQQERLLAMLEQKNGEIKHLLGEIRNLEKFKNLYDSMESKPSVDSGTLEDNTYYTDLLQMKLDNLNKEIESTKGELSIQRMKALFESQRALDIERKLFANERCLQLSESENMKLRAKLDELKLKYEPEETVEVPVLKKRREVLPVDITTAKDACVNNSALGGEVYRLPPQKEETQSCPNSLEDNNLQLEKSVSIYTPVVSLSPHKNLPVDMQLKKEKKCVKLIGVPADAEALSERSGNTPNSPRLAAESKLQTEVKEGKETSSKLEKETCKKLHPILYVSSKSTPETQCPQQ
modifications: farnesyl on Cys602
B3: mCherry–Spindly^Farn (natural protein, human, UniProt Q96EA4 1-605, looked up)
chain: MEADIITNLRCRLKEAEEERLKAAQYGLQLVESQNELQNQLDKCRNEMMTMTESYEQEKYTLQREVELKSRMLESLSCECEAIKQQQKMHLEKLEEQLSRSHGQEVNELKTKIEKLKVELDEARLSEKQLKHQVDHQKELLSCKSEELRVMSERVQESMSSEMLALQIELTEMESMKTTLKEEVNELQYRQEQLELLITNLMRQVDRLKEEKEEREKEAVSYYNALEKARVANQDLQVQLDQALQQALDPNSKGNSLFAEVEDRRAAMERQLISMKVKYQSLKKQNVFNREQMQRMKLQIATLLQMKGSQTEFEQQERLLAMLEQKNGEIKHLLGEIRNLEKFKNLYDSMESKPSVDSGTLEDNTYYTDLLQMKLDNLNKEIESTKGELSIQRMKALFESQRALDIERKLFANERCLQLSESENMKLRAKLDELKLKYEPEETVEVPVLKKRREVLPVDITTAKDACVNNSALGGEVYRLPPQKEETQSCPNSLEDNNLQLEKSVSIYTPVVSLSPHKNLPVDMQLKKEKKCVKLIGVPADAEALSERSGNTPNSPRLAAESKLQTEVKEGKETSSKLEKETCKKLHPILYVSSKSTPETQCPQQ
modifications: farnesyl on Cys602
B4: ZW10 (natural protein, human, UniProt O43264 1-779, looked up)
chain: MASFVTEVLAHSGRLEKEDLGTRISRLTRRVEEIKGEVCNMISKKYSEFLPSMQSAQGLITQVDKLSEDIDLLKSRIESEVRRDLHVSTGEFTDLKQQLERDSVVLSLLKQLQEFSTAIEEYNCALTEKKYVTGAQRLEEAQKCLKLLKSRKCFDLKILKSLSMELTIQKQNILYHLGEEWQKLIVWKFPPSKDTSSLESYLQTELHLYTEQSHKEEKTPMPPISSVLLAFSVLGELHSKLKSFGQMLLKYILRPLASCPSLHAVIESQPNIVIIRFESIMTNLEYPSPSEVFTKIRLVLEVLQKQLLDLPLDTDLENEKTSTVPLAEMLGDMIWEDLSECLIKNCLVYSIPTNSSKLQQYEEIIQSTEEFENALKEMRFLKGDTTDLLKYARNINSHFANKKCQDVIVAARNLMTSEIHNTVKIIPDSKINVPELPTPDEDNKLEVQKVSNTQYHEVMNLEPENTLDQHSFSLPTCRISESVKKLMELAYQTLLEATTSSDQCAVQLFYSVRNIFHLFHDVVPTYHKENLQKLPQLAAIHHNNCMYIAHHLLTLGHQFRLRLAPILCDGTATFVDLVPGFRRLGTECFLAQMRAQKGELLERLSSARNFSNMDDEENYSAASKAVRQVLHQLKRLGIVWQDVLPVNIYCKAMGTLLNTAISEVIGKITALEDISTEDGDRLYSLCKTVMDEGPQVFAPLSEESKNKKYQEEVPVYVPKWMPFKELMMMLQASLQEIGDRWADGKGPLAAAFSSSEVKALIRALFQNTERRAAALAKIK
B5: Zwilch (natural protein)
chain: not shown

How the values were obtained:
Zwilch = target: B5; experiment: SEC
Chain of Zwilch (Q9H900 whole entry): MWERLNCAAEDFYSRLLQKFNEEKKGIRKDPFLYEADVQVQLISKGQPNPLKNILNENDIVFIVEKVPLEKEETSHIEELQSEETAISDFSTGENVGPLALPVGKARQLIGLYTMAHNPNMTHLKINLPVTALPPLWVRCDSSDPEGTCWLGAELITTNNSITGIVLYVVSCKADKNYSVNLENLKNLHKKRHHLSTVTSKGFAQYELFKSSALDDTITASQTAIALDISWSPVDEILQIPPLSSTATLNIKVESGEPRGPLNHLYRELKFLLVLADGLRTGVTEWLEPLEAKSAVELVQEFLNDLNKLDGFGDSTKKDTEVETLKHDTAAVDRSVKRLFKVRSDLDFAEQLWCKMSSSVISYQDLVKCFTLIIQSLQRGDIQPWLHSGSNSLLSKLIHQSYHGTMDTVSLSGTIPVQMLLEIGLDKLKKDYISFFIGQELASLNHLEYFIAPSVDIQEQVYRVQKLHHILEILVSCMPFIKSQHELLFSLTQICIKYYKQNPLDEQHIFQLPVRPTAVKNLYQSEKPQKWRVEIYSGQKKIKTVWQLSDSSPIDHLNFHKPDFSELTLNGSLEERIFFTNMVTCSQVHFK

[1] = target: ROD–Zwilch–ZW10 (RZZ) complex (human, UniProt P50748 1-2209; Q9H900 1-591; O43264 1-779); experiment: AUC
Chain of ROD–Zwilch–ZW10 (RZZ) complex (Q9H900 whole entry, one chain of several): as the sequence (Q9H900 whole entry) above

ROD^1–1,250 [2] = target: T1, ROD^1–1,250; experiment: negative-stain EM 3D reconstruction
ROD^1–1,250 [3] = target: T1, ROD^1–1,250; experiment: co-expression and co-purification

Row | Binder | binding result (Zwilch) | stoichiometry N [1] | binding result (ROD^1–1,250 [2]) | binding result (ROD^1–1,250 [3])
1 | B1 | binds | – | – | –
2 | B2 | – | 2 copies of each subunit | – | –
3 | B3 | – | 2 copies of each subunit | – | –
4 | B4 | – | – | binds | binds
5 | B5 | – | – | binds | binds
